Here are results for 16 molecules from patent US20240376170A1 (BRIGHT PEAK THERAPEUTICS, published 2024).

The chains are these.
T1: IL-2Rβγ on HEK-Blue IL-2Rβγ reporter cells (InvivoGen) (UniProt P14784 27-551; P31785 23-369, limits assumed)
T1 sequence (looked up) 1: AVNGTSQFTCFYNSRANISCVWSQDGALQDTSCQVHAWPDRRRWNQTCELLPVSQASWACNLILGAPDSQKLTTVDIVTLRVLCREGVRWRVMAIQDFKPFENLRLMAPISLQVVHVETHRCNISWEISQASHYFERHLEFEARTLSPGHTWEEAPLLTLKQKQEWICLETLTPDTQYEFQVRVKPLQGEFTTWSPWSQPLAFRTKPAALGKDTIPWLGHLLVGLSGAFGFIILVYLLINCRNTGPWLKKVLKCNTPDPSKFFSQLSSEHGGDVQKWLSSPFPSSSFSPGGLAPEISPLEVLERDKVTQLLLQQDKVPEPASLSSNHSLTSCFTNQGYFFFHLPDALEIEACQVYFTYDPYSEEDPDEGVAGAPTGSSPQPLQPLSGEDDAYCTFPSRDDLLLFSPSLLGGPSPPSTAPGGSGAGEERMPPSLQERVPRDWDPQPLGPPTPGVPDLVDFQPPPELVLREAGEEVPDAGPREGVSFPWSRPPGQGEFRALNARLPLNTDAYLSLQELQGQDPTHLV
T1 sequence (looked up) 2: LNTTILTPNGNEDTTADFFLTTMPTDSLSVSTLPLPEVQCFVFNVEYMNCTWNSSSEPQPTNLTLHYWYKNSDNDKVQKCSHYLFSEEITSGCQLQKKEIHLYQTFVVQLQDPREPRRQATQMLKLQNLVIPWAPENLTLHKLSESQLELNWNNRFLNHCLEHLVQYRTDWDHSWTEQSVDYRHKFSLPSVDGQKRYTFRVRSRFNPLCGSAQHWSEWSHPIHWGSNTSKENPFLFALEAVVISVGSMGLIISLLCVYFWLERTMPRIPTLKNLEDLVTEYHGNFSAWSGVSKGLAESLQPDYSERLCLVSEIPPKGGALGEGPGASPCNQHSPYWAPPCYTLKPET

B1: CMP-315, uPa cleaved (ligand)
chain: APTSSSTKKTQLQLEHLLLDLQKILNGINNYKNPKLTR[Nle]L[hSer][Yn3]KF[Ygp][Nle]PKKATELKHLQCLEEELKPLEEVL[hSer]LAQSKNFHLRPRDLISNINVIVLELKGSETTF[hSer]CEYADETATIVEFLNRWITFSQSIISTLT
modifications: ends and bridges not checked; also: further groups not given here, tested after uPa cleavage, remaining product not given here
B2: CMP-316 (ligand)
chain: APTSSSTKKTQLQLEHLLLDLQKILNGINNYKNPKLTR[Nle]L[hSer][Yn3]KF[Ygp][Nle]PKKATELKHLQCLEEELKPLEEVL[hSer]LAQSKNFHLRPRDLISNINVIVLELKGSETTF[hSer]CEYADETATIVEFLNRWITFSQSIISTLT
modifications: ends and bridges not checked; also: further groups not given here
B3: CMP-328, uPa cleaved (ligand)
chain: APTSSSTKKTQLQLEHLLLDLQEILNGINNYKNPKLTR[Nle]L[hSer][Yn3]KF[Ygp][Nle]PKKATELKHLQCLEEELKPLEEVL[hSer]LAQSKNFHLRPRDLISNINVIVLELKGSETTF[hSer]CEYADETATIVEFLNRWITFSQSIISTLT
modifications: also: uPa-cleaved, before the cut Lys9-Glu23 side chains bridged by peptide linker, product not given here
B4: CMP-330, MMP2 cleaved (ligand)
chain: APTSSSTKKTQLQLEHLLLDLQEILNGINNYKNPKLTR[Nle]L[hSer]Y(9x polyethylene glycol‑azido)KFY(8x polyethylene glycol‑amino)[Nle]PKKATELKHLQCLEEELKPLEEVL[hSer]LAQSKNFHLRPRDLISNINVIVLELKGSETTF[hSer]CEYADETATIVEFLNRWITFSQSIISTLT
modifications: not fully specified; also: before the cut Lys9 and Glu23 side chains are bridged by a peptide linker, what remains after the cut not given here
B5: CMP-316, uPa cleaved (ligand)
chain: APTSSSTKKTQLQLEHLLLDLQKILNGINNYKNPKLTR[Nle]L[hSer][Yn3]KF[Ygp][Nle]PKKATELKHLQCLEEELKPLEEVL[hSer]LAQSKNFHLRPRDLISNINVIVLELKGSETTF[hSer]CEYADETATIVEFLNRWITFSQSIISTLT
modifications: ends and bridges not checked; also: further groups not given here, tested after uPa cleavage, remaining product not given here
B6: CMP-329, MMP2 cleaved (ligand)
chain: APTSSSTKKTQLQLEHLLLDLQEILNGINNYKNPKLTR[Nle]L[hSer][Yn3″]KF[Ygp″][Nle]PKKATELKHLQCLEEELKPLEEVL[hSer]LAQSKNFHLRPRDLISNINVIVLELKGSETTF[hSer]CEYADETATIVEFLNRWITFSQSIISTLT
modifications: ends and bridges not checked; also: after MMP2 cleavage, remnants of the Lys9–Glu23 peptide linker not given here
B7: CMP-315, matriptase cleaved (ligand)
chain: APTSSSTKKTQLQLEHLLLDLQKILNGINNYKNPKLTR[Nle]L[hSer][Yn3]KF[Ygp][Nle]PKKATELKHLQCLEEELKPLEEVL[hSer]LAQSKNFHLRPRDLISNINVIVLELKGSETTF[hSer]CEYADETATIVEFLNRWITFSQSIISTLT
modifications: ends and bridges not checked; also: further groups not given here, tested after matriptase cleavage, remaining product not given here
B8: CMP-317 (ligand)
chain: GSGSGSG[PEG4′]APTSSSTKKTQLQLEHLLLDLQEILNGINNYKNPKLTR[Nle]L[hSer][Yn3]KF[Ygp][Nle]PKKATELKHLQCLEEELKPLEEVL[hSer]LAQSKNFHLRPRDLISNINVIVLELKGSETTF[hSer]CEYADETATIVEFLNRWITFSQSIISTLT
modifications: bridge N-31; not fully specified (bridges); ends not checked
B9: CMP-328, matriptase cleaved (ligand)
chain: APTSSSTKKTQLQLEHLLLDLQEILNGINNYKNPKLTR[Nle]L[hSer][Yn3]KF[Ygp][Nle]PKKATELKHLQCLEEELKPLEEVL[hSer]LAQSKNFHLRPRDLISNINVIVLELKGSETTF[hSer]CEYADETATIVEFLNRWITFSQSIISTLT
modifications: also: matriptase-cleaved, before the cut Lys9-Glu23 side chains bridged by peptide linker, product not given here
B10: CMP-329 (ligand)
chain: APTSSSTKKTQLQLEHLLLDLQEILNGINNYKNPKLTR[Nle]L[hSer][Yn3″]KF[Ygp″][Nle]PKKATELKHLQCLEEELKPLEEVL[hSer]LAQSKNFHLRPRDLISNINVIVLELKGSETTF[hSer]CEYADETATIVEFLNRWITFSQSIISTLT
modifications: bridge 9-23; not fully specified (bridges); ends not checked
B11: CMP-316, matriptase cleaved (ligand)
chain: APTSSSTKKTQLQLEHLLLDLQKILNGINNYKNPKLTR[Nle]L[hSer][Yn3]KF[Ygp][Nle]PKKATELKHLQCLEEELKPLEEVL[hSer]LAQSKNFHLRPRDLISNINVIVLELKGSETTF[hSer]CEYADETATIVEFLNRWITFSQSIISTLT
modifications: ends and bridges not checked; also: further groups not given here, tested after matriptase cleavage, remaining product not given here
B12: CMP-321 (ligand)
chain: SGRVQPLVDAPTSSSTKKTQLQLEHLLLDLQEILNGINNYKNPKLTR[Nle]L[hSer][Yn3(6)]KF[Ygp(6)][Nle]PKKATELKHLQCLEEELKPLEEVL[hSer]LAQSKNFHLRPRDLISNINVIVLELKGSETTF[hSer]CEYADETATIVEFLNRWITFSQSIISTLT
modifications: lactam N-32
B13: CMP-330 (ligand)
chain: APTSSSTKKTQLQLEHLLLDLQEILNGINNYKNPKLTR[Nle]L[hSer]Y(9x polyethylene glycol‑azido)KFY(8x polyethylene glycol‑amino)[Nle]PKKATELKHLQCLEEELKPLEEVL[hSer]LAQSKNFHLRPRDLISNINVIVLELKGSETTF[hSer]CEYADETATIVEFLNRWITFSQSIISTLT
modifications: bridge 9-23; not fully specified (bridges)
B14: CMP-316, MMP2 cleaved (ligand)
chain: APTSSSTKKTQLQLEHLLLDLQKILNGINNYKNPKLTR[Nle]L[hSer][Yn3]KF[Ygp][Nle]PKKATELKHLQCLEEELKPLEEVL[hSer]LAQSKNFHLRPRDLISNINVIVLELKGSETTF[hSer]CEYADETATIVEFLNRWITFSQSIISTLT
modifications: ends and bridges not checked; also: further groups not given here, tested after MMP2 cleavage, remaining product not given here
B15: CMP-318 (ligand)
chain: SGRVANLVGAPTSSSTKKTQLQLEHLLLDLQEILNGINNYKNPKLTR[Nle]L[hSer][Yn3]KF[Ygp][Nle]PKKATELKHLQCLEEELKPLEEVL[hSer]LAQSKNFHLRPRDLISNINVIVLELKGSETTF[hSer]CEYADETATIVEFLNRWITFSQSIISTLT
modifications: lactam N-32; ends not checked
B16: CMP-320 (ligand)
chain: SGRVAPQPLVDAPTSSSTKKTQLQLEHLLLDLQEILNGINNYKNPKLTR[Nle]L[hSer][Yn3(6)]KF[Ygp(6)][Nle]PKKATELKHLQCLEEELKPLEEVL[hSer]LAQSKNFHLRPRDLISNINVIVLELKGSETTF[hSer]CEYADETATIVEFLNRWITFSQSIISTLT
modifications: lactam N-34

Bridges are numbered along the chain shown (N, C = ends). Primed or numbered codes have the meaning given here. [ ]: non-standard residue; d: D form. 8x polyethylene glycol‑amino = O-(8x polyethylene glycol-amino)-tyrosine, SITE 45; 9x polyethylene glycol‑azido = O-(9x polyethylene glycol-azido)-tyrosine, SITE 42; Ygp = O-(8x polyethylene glycol-amino)-tyrosine (Tyr, amino-capped PEG8); Yn3 = O-(9x polyethylene glycol-azido)-tyrosine (Tyr, azide-capped PEG9); Ygp″ = O-(8x polyethylene glycol-amino)-tyrosine; Yn3″ = O-(9x polyethylene glycol-azido)-tyrosine; Ygp(6) = Tyr, amino-capped PEG8; Yn3(6) = Tyr, azide-capped PEG9; PEG4′ = 4x polyethylene glycol; hSer = N[C@@H](CCO)C(=O)O; Nle = CCCC[C@H](N)C(=O)O

The target of the assay is T1, IL-2Rβγ on HEK-Blue IL-2Rβγ reporter …. The experiment in a line: cell-based or functional assay.
Take B1: the “Average EC50, HEK-Blue IL-2R (CD122+, CD132+) Reporter Assay, uPa cleaved molecule” value (“Average EC50 … uPa cleaved molecule” for short) was 58.1 pM.

For B2, the “Average EC50, HEK-Blue IL-2R (CD122+, CD132+) Reporter Assay, intact molecule” value (from here on “Average EC50, HEK-Blue IL-2R … intact molecule”) amounted to 96.8 pM.

With B3, the “Average EC50 … uPa cleaved molecule” value was 571 pM.

As to B4, the “Average EC50, HEK-Blue IL-2R (CD122+, CD132+) Reporter Assay, MMP2 cleaved molecule” value (“Average EC50 … MMP2 cleaved molecule” for short) was found to be 558 pM.

For the molecule B5, the “Average EC50 … uPa cleaved molecule” value is 88.4 pM.

Regarding B6, the “Average EC50 … MMP2 cleaved molecule” value turned out to be 70.2 pM.

Regarding B7, the “Average EC50, HEK-Blue IL-2R (CD122+, CD132+) Reporter Assay, Matriptase cleaved molecule” value (shortened to “Average EC50 … Matriptase cleaved molecule”) was found to be 34.9 pM.

With B8, the “Average EC50, HEK-Blue IL-2R … intact molecule” value was 2240 pM.

Consider B9, for which the “Average EC50 … Matriptase cleaved molecule” value is 352 pM.

Regarding B10, the “Average EC50, HEK-Blue IL-2R … intact molecule” value came to 1700 pM.

With B11, the “Average EC50 … Matriptase cleaved molecule” value is 82.8 pM.

On to B12, for which the “Average EC50, HEK-Blue IL-2R … intact molecule” value was determined as 4200 pM.

For B13, the “Average EC50, HEK-Blue IL-2R … intact molecule” value turned out to be 1720 pM.

As for B14, the “Average EC50 … MMP2 cleaved molecule” value came out at 96.3 pM.

Turning to B15, the “Average EC50, HEK-Blue IL-2R … intact molecule” value worked out at 3370 pM.

Take B16: the “Average EC50, HEK-Blue IL-2R … intact molecule” value worked out at 775 pM.
